Measurements: patent publication US20240317834A1, “COMPOSITIONS AND METHODS FOR NEUROLOGICAL DISEASES” (CODA BIOTHERAPEUTICS, INC., priority 2020, published 2024)

B1: CODA1053: engineered chimeric LGIC receptor, R101M, L131A in SEQ ID NO: 33 (protein)
chain: MRCSPGGVWLALAASLLHVSLQGEFQRKLYKELVKNYNPLERPVANDSQPLTVYFSLSLLQIMDVDEKNQVLTTNIWLQMSWTDHYLQWNVSEYPGVKTVMFPDGQIWKPDILLYNSADERFDATFHTNVAVNSSGHCQYLPPGIFKSSCPMDLKNFPMDVQTCKLKFGSWSYGGWSLDLQMQEADISGYIPNGEWDLVGIPGKRSERFYECCKEPYPDVTFTVTMRRRMGYYLIQMYIPSLLIVILSWISFWINMDAAPARVGLGITTVLTMTTQSSGSRASLPKVSYVKAIDIWMAVCLLFVFSALLEYAAVNFVSRQHKELLRFRRKRRHHKSPMLNLFQEDEAGEGRFNFSAYGMGPACLQAKDGISVKGANNSNTTNPPPAPSKSPEEMRKLFIQRAKKIDKISRIGFPMAFLIFNMFYWIIYKIVRREDVHNQ
modifications: synthetic sequence of chimeric LGIC
B2: CODA1138: engineered chimeric LGIC receptor, W77F, R101F, L131D in SEQ ID NO: 33 (protein)
chain: MRCSPGGVWLALAASLLHVSLQGEFQRKLYKELVKNYNPLERPVANDSQPLTVYFSLSLLQIMDVDEKNQVLTTNIFLQMSWTDHYLQWNVSEYPGVKTVFFPDGQIWKPDILLYNSADERFDATFHTNVDVNSSGHCQYLPPGIFKSSCPMDLKNFPMDVQTCKLKFGSWSYGGWSLDLQMQEADISGYIPNGEWDLVGIPGKRSERFYECCKEPYPDVTFTVTMRRRMGYYLIQMYIPSLLIVILSWISFWINMDAAPARVGLGITTVLTMTTQSSGSRASLPKVSYVKAIDIWMAVCLLFVFSALLEYAAVNFVSRQHKELLRFRRKRRHHKSPMLNLFQEDEAGEGRFNFSAYGMGPACLQAKDGISVKGANNSNTTNPPPAPSKSPEEMRKLFIQRAKKIDKISRIGFPMAFLIFNMFYWIIYKIVRREDVHNQ
modifications: synthetic sequence of chimeric LGIC

Test system: Lenti-X 293T cells
Experiment: YFP fluorescence quenching anion reporter plate reader assay of engineered receptors stimulated with acetylcholine or a non-native ligand
Format: cell-based
Settings: for percent quench of YFP fluorescence, 10 uM ach: acetylcholine 10 uM; for percent quench of YFP fluorescence, 100 uM ach: acetylcholine 100 uM; for percent quench of YFP fluorescence, 300 uM ach: acetylcholine 300 uM; for percent quench of YFP fluorescence, 1 mM ach: acetylcholine 1 mM; for percent quench of YFP fluorescence, 3 mM ach: acetylcholine 3 mM
In short: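 YFP quench was followed for about 1 min 43 s after ligand delivered in iodide-based ECS, pH 7.2. Values are end-of-read fluorescence (last 10 s) divided by the pre-ligand baseline (15 s). Cells were LX293T, transfected with receptor DNA a day before the assay.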

Row | Molecule | YFP fluorescence quenching using CNL001 (1 nM CNL001, first column) [%] | YFP fluorescence quenching using CNL001 (1 nM CNL001, second column) [%] | YFP fluorescence quenching using Varenicline (3 nM var, first column) | YFP fluorescence quenching using Varenicline (3 nM var, second column) | YFP fluorescence quenching using CNL001 (10 nM CNL001, first column) [%] | YFP fluorescence quenching using CNL001 (10 nM CNL001, second column) [%] | YFP fluorescence quenching using Varenicline (30 nM var, first column) | YFP fluorescence quenching using Varenicline (30 nM var, second column) | YFP fluorescence quenching using CNL001 (50 nM CNL001, first column) [%] | YFP fluorescence quenching using CNL001 (50 nM CNL001, second column) [%] | YFP fluorescence quenching using ABT-126 (50 nM abt) [%] | YFP fluorescence quenching using CNL001 (100 nM CNL001, first column) [%] | YFP fluorescence quenching using CNL001 (100 nM CNL001, second column) [%] | YFP fluorescence quenching using ABT-126 (100 nM abt) [%] | YFP fluorescence quenching using ABT-126 (300 nM abt) [%] | YFP fluorescence quenching using Varenicline (300 nM var, first column) | YFP fluorescence quenching using Varenicline (300 nM var, second column) | YFP fluorescence quenching using Varenicline (500 nM var, first column) | YFP fluorescence quenching using Varenicline (500 nM var, second column) | YFP fluorescence quenching using CNL001 (1 uM CNL001, first column) [%] | further results
1 | B1 | −8.554 | −13.711 | 74.835 | 76.119 | 39.631 | 66.809 | 77.608 | 79.015 | 82.122 | 82.031 | −27.01 | 83.312 | 83.986 | −18.76 | −17.8 | 80.71 | 79.002 | 78.709 | 78.884 | 84.363 | YFP fluorescence quenching using TC-5619/Bradanicline (1 nM brd): 0.008%; YFP fluorescence quenching using TC-5619/Bradanicline (3 nM brd): 43.21%; YFP fluorescence quenching using TC-5619/Bradanicline (10 nM brd): 77.672%; YFP fluorescence quenching using TC-5619/Bradanicline (30 nM brd): 76.277%; YFP fluorescence quenching using TC-5619/Bradanicline (100 nM brd): 76.856%; YFP fluorescence quenching using TC-5619/Bradanicline (300 nM brd): 75.32%; YFP fluorescence quenching using CNL001 (1 uM CNL001, second column): 83.877%; YFP fluorescence quenching using ABT-126 (1 uM abt): −6.55%; YFP fluorescence quenching using Varenicline (1 uM var, first column): 79.688; YFP fluorescence quenching using Varenicline (1 uM var, second column): 80; percent quench of YFP fluorescence, 10 uM ach: −3.98%; percent quench of YFP fluorescence, 100 uM ach: −11%; percent quench of YFP fluorescence, 300 uM ach: −7.92%; percent quench of YFP fluorescence, 500 uM ach (acetylcholine 500 uM): 7.36%; percent quench of YFP fluorescence, 1 mM ach: 57.28%; percent quench of YFP fluorescence, 3 mM ach: 60.54%; percent quench of YFP fluorescence, 10 mM ach (acetylcholine 10 mM): 79.46%
2 | B2 | −6.175 | 5.89 | 3.893 | 1.107 | −2.032 | 7.601 | 0.972 | 0.872 | 9.263 | 4.423 | −11.71 | 24 | 30.448 | −5.13 | 15.09 | 2.282 | −0.288 | 3.637 | −1.804 | 73.823 | YFP fluorescence quenching using CNL002 (1 nM CNL002): −2.209%; YFP fluorescence quenching using CNL002 (10 nM CNL002): 43.044%; YFP fluorescence quenching using CNL002 (50 nM CNL002): 73.418%; YFP fluorescence quenching using CNL002 (100 nM CNL002): 81.66%; YFP fluorescence quenching using CNL001 (1 uM CNL001, second column): 73.271%; YFP fluorescence quenching using CNL002 (1 uM CNL002): 81.69%; YFP fluorescence quenching using ABT-126 (1 uM abt): 56.63%; YFP fluorescence quenching using Varenicline (1 uM var, first column): −1.84; YFP fluorescence quenching using Varenicline (1 uM var, second column): 6.36; YFP fluorescence quenching using ABT-126 (10 uM abt): 75.93%; percent quench of YFP fluorescence, 10 uM ach: −12.92%; percent quench of YFP fluorescence, 30 uM ach (acetylcholine 30 uM): −15.36%; percent quench of YFP fluorescence, 100 uM ach: −19.35%; percent quench of YFP fluorescence, 300 uM ach: −14.79%; percent quench of YFP fluorescence, 1 mM ach: 37.5%; percent quench of YFP fluorescence, 3 mM ach: 61.73%
